T1: FcγRIIb extracellular domain with C-terminal His tag (human, UniProt P31994 43-217)
T1 construct: extracellular domain; Soluble receptor expressed in FreeStyle293 cells; analyte in Biacore; also called FcgRIIb; 2b; not shown: His tag at the C terminus
T1 sequence (looked up): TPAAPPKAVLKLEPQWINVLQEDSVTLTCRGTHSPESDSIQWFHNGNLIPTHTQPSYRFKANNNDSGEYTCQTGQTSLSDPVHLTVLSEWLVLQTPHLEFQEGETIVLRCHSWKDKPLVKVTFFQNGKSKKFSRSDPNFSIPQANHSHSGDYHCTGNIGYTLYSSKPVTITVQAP

B1: GpH7-A5/GpH7-B3 variant I332_12R/GpL16-k0 (antibody, human IgG1, kappa)
heavy 1: not shown
heavy 2: not shown
light: DIVMTQSPLSLPVTPGEPASISCQASESLVHSNRNTYLHWYLQKPGQSPQLLIYKVSNRFSGVPDRFSGSGSGTDFTLKISRVEAEDVGVYYCSQNTHVPPTFGQGTKVEIERTVAAPSVFIFPPSDEQLKSGTASVVCLLNNFYPREAKVQWKVDNALQSGNSQESVTEQDSKDSTYSLSSTLTLSKADYEKHKVYACEVTHQGLSSPVTKSFNRGEC
notes: He Ab: heterodimerized anti-glypican-3 IgG1, substitution in one H chain only; also called He Ab I332R
B2: GpH7-A5/GpH7-B3 variant P329_06M/GpL16-k0 (antibody, human IgG1, kappa)
heavy 1: not shown
heavy 2: not shown
light: B1 light
notes: He Ab: heterodimerized anti-glypican-3 IgG1, substitution in one H chain only; also called He Ab P329M
B3: GpH7-A5/GpH7-B3 variant I336_02A/GpL16-k0 (antibody, human IgG1, kappa)
heavy 1: not shown
heavy 2: not shown
light: B1 light
notes: He Ab: heterodimerized anti-glypican-3 IgG1, substitution in one H chain only; also called He Ab I336A
B4: GpH7-A5/GpH7-B3 variant I336_19Q/GpL16-k0 (antibody, human IgG1, kappa)
heavy 1: not shown
heavy 2: not shown
light: B1 light
notes: He Ab: heterodimerized anti-glypican-3 IgG1, substitution in one H chain only; also called He Ab I336Q
B5: GpH7-A5/GpH7-B3 variant I336_13S/GpL16-k0 (antibody, human IgG1, kappa)
heavy 1: not shown
heavy 2: not shown
light: B1 light
notes: He Ab: heterodimerized anti-glypican-3 IgG1, substitution in one H chain only; also called He Ab I336S
B6: GpH7-A5/GpH7-B3 variant L328_18N/GpL16-k0 (antibody, human IgG1, kappa)
heavy 1: not shown
heavy 2: not shown
light: B1 light
notes: He Ab: heterodimerized anti-glypican-3 IgG1, substitution in one H chain only; also called He Ab L328N
B7: GpH7-A5/GpH7-B3 variant P329_03V/GpL16-k0 (antibody, human IgG1, kappa)
heavy 1: not shown
heavy 2: not shown
light: B1 light
notes: He Ab: heterodimerized anti-glypican-3 IgG1, substitution in one H chain only; also called He Ab P329V
B8: GpH7-A5/GpH7-B3 variant I336_15Y/GpL16-k0 (antibody, human IgG1, kappa)
heavy 1: not shown
heavy 2: not shown
light: B1 light
notes: He Ab: heterodimerized anti-glypican-3 IgG1, substitution in one H chain only; also called He Ab I336Y
B9: GpH7-A5/GpH7-B3 variant P329_04F/GpL16-k0 (antibody, human IgG1, kappa)
heavy 1: not shown
heavy 2: not shown
light: B1 light
notes: He Ab: heterodimerized anti-glypican-3 IgG1, substitution in one H chain only; also called He Ab P329F
B10: GpH7-A5/GpH7-B3 variant P329_02A/GpL16-k0 (antibody, human IgG1, kappa)
heavy 1: not shown
heavy 2: not shown
light: B1 light
notes: He Ab: heterodimerized anti-glypican-3 IgG1, substitution in one H chain only; also called He Ab P329A
B11: GpH7-A5/GpH7-B3 variant I336_20W/GpL16-k0 (antibody, human IgG1, kappa)
heavy 1: not shown
heavy 2: not shown
light: B1 light
notes: He Ab: heterodimerized anti-glypican-3 IgG1, substitution in one H chain only; also called He Ab I336W
B12: GpH7-A5/GpH7-B3 variant I336_01G/GpL16-k0 (antibody, human IgG1, kappa)
heavy 1: not shown
heavy 2: not shown
light: B1 light
notes: He Ab: heterodimerized anti-glypican-3 IgG1, substitution in one H chain only; also called He Ab I336G
B13: GpH7-A5/GpH7-B3 variant L328_01G/GpL16-k0 (antibody, human IgG1, kappa)
heavy 1: not shown
heavy 2: not shown
light: B1 light
notes: He Ab: heterodimerized anti-glypican-3 IgG1, substitution in one H chain only; also called He Ab L328G
B14: GpH7-A5/GpH7-B3 variant L328_05P/GpL16-k0 (antibody, human IgG1, kappa)
heavy 1: not shown
heavy 2: not shown
light: B1 light
notes: He Ab: heterodimerized anti-glypican-3 IgG1, substitution in one H chain only; also called He Ab L328P

The target in the first test is T1, FcγRIIb extracellular domain with …. Briefly: SPR (Biacore), antibody captured on antigen peptide chip, FcγR as analyte; binding relative to GpH7-A5/GpH7-B3/GpL16-k0 = 100. The procedure:
(§1) The heterodimerized antibodies He Abs in which one of the H chains was introduced with an alteration were assayed for their binding activities to each activating FcγR and inhibitory FcγR according to the method described in Example 4. […] The activating FcγRs in FIGS. 26, 27, 28, and 29 are FcγRIa, FcγRIIa (R), FcγRIIa (H), and FcγRIIIa, respectively.
(§2) Analysis of interaction between objective antibody and the FcγR was carried out using Biacore T100 (GE Healthcare). HBS-EP+ (GE Healthcare) was used as the running buffer, and the measurement temperature was set to 25° C. Chips produced by immobilizing the antigen peptide by the amine coupling method to a Series S Sencor Chip CM5 (GE Healthcare), or alternatively, chips produced by allowing preliminarily biotinylated antigen peptides to interact with and immobilize onto a Series S Sensor Chip SA (certified) (GE Healthcare) were used. Antibodies of interest were captured onto an antigen peptide-immobilized chip, and allowed to interact to each FcγR diluted with running buffer. To regenerate and repeatedly use the chip, the antibodies captured on the chip were washed off by reacting 10 mM glycine-HCl, pH 1.5.
(In general: In SPR one partner is held on a chip, and binding of the other changes the refractive index at the surface.)
Turning to B1, the “He/Con_2b (IIb binding)” value was 48.9 % of control (control = 100).
On the same count and under the same terms, the result for B2 reads 29.1 % of control (control = 100); that for B3, 84.9 % of control (control = 100); that for B4, 58.2 % of control (control = 100).
For B5, the “He/Con_2b (IIb binding)” value is 83.7 % of control (control = 100).
Same read-out and setting: the result for B6 reads 80.8 % of control (control = 100); that for B7, 38.5 % of control (control = 100).
Turning to B8, the “He/Con_2b (IIb binding)” value was 68.2 % of control (control = 100).
Still for that read-out and setting: the result for B9 reads 32.2 % of control (control = 100); that for B10, 40.5 % of control (control = 100).
On the same count and under the same terms, the result for B11 reads 20.3 % of control (control = 100); that for B12, 90.1 % of control (control = 100); that for B13, 80.2 % of control (control = 100).
On the same count and under the same terms, the result for B14 reads 65.1 % of control (control = 100).

A further test deals with T2, FcγRIa extracellular domain with C-terminal His tag (human, UniProt P12314 16-292).
T2 construct: extracellular domain; Soluble receptor expressed in FreeStyle293 cells; analyte in Biacore; also called FcgRI; FcgRIa; not shown: His tag at the C terminus
T2 sequence (P12314 16-292): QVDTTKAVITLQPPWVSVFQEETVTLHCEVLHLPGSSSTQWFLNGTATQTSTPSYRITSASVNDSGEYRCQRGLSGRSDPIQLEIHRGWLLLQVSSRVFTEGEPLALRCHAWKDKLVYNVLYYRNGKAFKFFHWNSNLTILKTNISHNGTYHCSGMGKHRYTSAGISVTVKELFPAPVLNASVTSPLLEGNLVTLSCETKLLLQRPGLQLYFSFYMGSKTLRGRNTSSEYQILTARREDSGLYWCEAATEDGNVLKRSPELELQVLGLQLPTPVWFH
The test is described as above. As to the method: as §1, §2
Take B1: the “He/Con_1a (Ia binding)” value was 100 % of control (control = 100).
On to B2, for which the “He/Con_1a (Ia binding)” value is 85.3 % of control (control = 100).
For the molecule B3, the “He/Con_1a (Ia binding)” value was 106 % of control (control = 100).
The same measure, in the same setting: the result for B4 reads 104 % of control (control = 100).
The same measure, in the same setting: the result for B5 reads 102 % of control (control = 100).
On the same count and under the same terms, the result for B6 reads 98.7 % of control (control = 100); that for B7, 97.4 % of control (control = 100); that for B8, 103 % of control (control = 100).
Take B9: the “He/Con_1a (Ia binding)” value is 92.7 % of control (control = 100).
For the molecule B10, the “He/Con_1a (Ia binding)” value was 102 % of control (control = 100).
The same measure, in the same setting: the result for B11 reads 86.7 % of control (control = 100).
Same read-out and setting: the result for B12 reads 109 % of control (control = 100); that for B13, 97.2 % of control (control = 100); that for B14, 92.2 % of control (control = 100).

The next test addresses T2, FcγRIa extracellular domain with …. Briefly: SPR (Biacore); He/Con_1a divided by He/Con_2b (FcγRIIb). As to the method:
as §1, §2
As to B1, the “He_1a/2b (Ia/IIb)” value was 2.05.
As for B2, the “He_1a/2b (Ia/IIb)” value amounted to 2.94.
The same measure, in the same setting: the result for B3 reads 1.25.
On to B4, for which the “He_1a/2b (Ia/IIb)” value stood at 1.78.
For B5, the “He_1a/2b (Ia/IIb)” value came to 1.22.
Turning to B6, the “He_1a/2b (Ia/IIb)” value came to 1.22.
Take B7: the “He_1a/2b (Ia/IIb)” value stood at 2.53.
Take B8: the “He_1a/2b (Ia/IIb)” value was 1.51.
Regarding B9, the “He_1a/2b (Ia/IIb)” value was 2.88.
As for B10, the “He_1a/2b (Ia/IIb)” value was 2.52.
Regarding B11, the “He_1a/2b (Ia/IIb)” value was determined as 4.28.
Same read-out and setting: the result for B12 reads 1.21; that for B13, 1.21; that for B14, 1.42.

The record behind these values is US20180155451A1 (published 2018).
